Experimental data as given in publication PMC12120064.

Columns and labels:
Assay in all cases: CEACAM1 co-IP (PLA also mentioned)
Conditions in all cases: reference: full-length 4L CEACAM1; sites Y493,Y520
[1] = target: SYK (UniProt P43405)
[2] = target: SHP-1 (UniProt P29350)
[3] = target: filamin A (FLNA) (UniProt P21333)

Measured: binding against the reference

CEACAM1 (CEACAM1-4L) (from UniProt P13688) Y493F/Y520F
weaker: all assays above
